# Source: patent US7727739B2, “Methods for measuring enzyme activity” (GE Healthcare UK Limited, priority 2002, dated 2010)
# Non-standard residues stand in square brackets, D forms with d. Residues, ends and D or L forms follow the SMILES beside them. No end group written: not given here. *: point of attachment. X1 = 6‑(9-oxo-9H-acridin-10-yl)hexanoyl, O=C(CCCCCn1c2ccccc2c(=O)c2ccccc21)*; Sta = CC(C)C[C@H](N)[C@@H](O)CC(=O)O; Phe(NO2) = nitro-phenylalanine; Isovaleryl = CC(C)CC(=O)*; Nva = CCC[C@H](N)C(=O)O
# T1: 6-(9-oxo-9H-acridin-10-yl) hexanoyl-CHLDIIW
# T1 sequence: CHLDIIW
# T2: 6-(9-oxo-9H-acridin-10-yl) hexanoic acid-Arg-Pro-Lys-Pro-Val-Glu-Nva-Trp-Arg-Lys-NH2
# T2 sequence: RPKPVEXWRK
# T3: 6-(9-oxo-9H-acridin-10-yl) hexanoyl-Ala-Ala-Phe-Phe-Ala-Ala-Tyr [AAFFAAY]
# T3 sequence: AAFFAAY
# T4: 6-(9-oxo-9H-acridin-10-yl) hexanoic acid-AAFFAAF-nitro (not fully specified)
# T4 chain: AAFFAAF
# B1: thermolysin (protein)
# chain: ITGTSTVGVGRGVLGDQKNINTTYSTYYYLQDNTRGNGIFTYDAKYRTTLPGSLWADADNQFFASYDAPAVDAHYYAGVTYDYYKNVHNRLSYDGNNAAIRSSVHYSQGYNNAFWNGSQMVYGDGDGQTFIPLSGGIDVVAHELTHAVTDYTAGLIYQNESGAINEAISDIFGTLVEFYANKNPDWEIGEDVYTPGISGDSLRSMSDPAKYGDPDHYSKRYTGTQDNGGVHINSGIINKAAYLISQGGTHYGVSVVGIGRDKLGKIFYRALTQYLTPTSNFSQLRAAAVQSATDLYGSTSQEVASVKQAFDAVGVK
# Legend:
# [1] = Fluorescence lifetime of labelled substrate in protease assay buffers; assay type: physicochemical
# Method: A no enzyme control (NEC) having 10 μl of buffer in place of enzyme was used. […] Since the lifetimes of substrate (10.3 ns) and product (13.8 ns) are different it was possible to monitor the appearance of product and disappearance of the substrate, the results are shown in FIG. 2.
# A no enzyme control (NEC) having 10 μl of buffer in place of enzyme was used. […] Since the lifetimes of the substrate (11.5 ns) and product (14.5 ns) in Tris buffer are different it was possible to monitor the appearance of product and disappearance of the substrate, the results are shown in FIG. 3.
# A no enzyme control (NEC) having 100 μl of buffer in place of enzyme was included.
# [2] = Fluorescence lifetimes stated for labels and typical substrates; assay type: physicochemical; settings: for lifetime of typical substrate: intact substrate, products 14 nano seconds; for lifetime of fluorescent label: free label
# [3] = Fluorescence lifetime of labelled peptides by time-correlated single photon counting; assay type: physicochemical; settings: 100 nM in TNC-T buffer pH7.5; excited at 405 nm, detection at 450 nm
# Method: The lifetime of this solution was determined (2 ml volume in a cuvette) by a time-correlated single photon counting technique (Edinburgh Analytical Instruments FL900CDT spectrometer). Samples were excited at 405 nm using a laser diode, detection being at 450 nm.
# The labelled peptide (6-(9-oxo-9H-acridin-10-yl) hexanoic acid- RPKPVENvaWRK) (SEQ ID NO:3) was also diluted to 100 nM in TNC-T buffer and the lifetime was similarly recorded.
# pepsin [4] = target: pepsin (Homo sapiens, UniProt P0DJD7); experiment: Inhibition of pepsin activity, fluorescence lifetime protease assay; assay type: biochemical; settings: pepsin 0.5 ng; 0.1M citrate buffer pH3.6; FIG. 8; read-out: apparent IC50, pepsin digestion of the peptide substrate
# pepsin (Homo sapiens, UniProt P0DJD7), sequence (P0DJD7 63-388): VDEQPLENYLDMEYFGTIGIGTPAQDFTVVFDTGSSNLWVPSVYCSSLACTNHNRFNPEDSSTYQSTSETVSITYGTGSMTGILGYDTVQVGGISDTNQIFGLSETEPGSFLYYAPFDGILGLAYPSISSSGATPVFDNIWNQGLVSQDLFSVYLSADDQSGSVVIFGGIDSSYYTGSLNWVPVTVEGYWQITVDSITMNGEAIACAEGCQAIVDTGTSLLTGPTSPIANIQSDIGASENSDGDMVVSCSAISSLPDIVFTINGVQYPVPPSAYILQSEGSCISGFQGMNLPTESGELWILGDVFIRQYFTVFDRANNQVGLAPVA
# Method: After incubation at ambient temperature, the fluorescence intensity and lifetime were recorded. Deconvolution using a non-linear least-squares analysis algorithm gave the fluorescence lifetimes.
# [5] = system: T1, 6-(9-oxo-9H-acridin-10-yl) hexanoyl-CHLDIIW
# [6] = system: T2, 6-(9-oxo-9H-acridin-10-yl) hexanoic acid-Arg-Pro-Lys-Pro-Val-Glu-Nva-Trp-Arg-Lys-NH2
# [7] = target: bovine kidney cathepsin D (bovine) (UniProt P80209); experiment: cell-based or functional assay
# bovine kidney cathepsin D (bovine), sequence (P80209 45-390 limits assumed): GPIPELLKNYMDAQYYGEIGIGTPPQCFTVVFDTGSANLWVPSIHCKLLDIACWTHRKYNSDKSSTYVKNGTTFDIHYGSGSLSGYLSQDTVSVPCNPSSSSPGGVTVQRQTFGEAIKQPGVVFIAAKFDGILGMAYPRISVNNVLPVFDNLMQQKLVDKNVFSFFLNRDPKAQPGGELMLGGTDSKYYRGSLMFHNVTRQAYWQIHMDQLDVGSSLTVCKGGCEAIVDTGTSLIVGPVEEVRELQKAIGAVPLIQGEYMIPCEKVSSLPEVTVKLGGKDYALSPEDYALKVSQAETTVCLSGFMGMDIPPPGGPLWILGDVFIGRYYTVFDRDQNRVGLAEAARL
# pepsin [8] = experiment: cell-based or functional assay
# [9] = system: T3, 6-(9-oxo-9H-acridin-10-yl) hexanoyl-Ala-Ala-Phe-Phe-Ala-Ala-Tyr [AAFFAAY]
# [10] = target: T4, 6-(9-oxo-9H-acridin-10-yl) hexanoic …
molecule,measurement,setting,value
"6-(9-oxo-9H-acridin-10-yl) hexanoic acid- AAFFAAF-nitro (X1-AAFFAA[Phe(NO2)]; not fully specified) [acridone-labelled nitro-phenylalanine peptide, thermolysin substrate]",fluorescence lifetime of substrate,"[1]; PBS buffer, pH7, stretched exponential analysis",2.5 ns
6-(9-oxo-9H-acridin-10-yl) hexanoic acid- Arg-Pro-Lys-Pro-Val-Glu-Nva-Trp-Arg-Lys-NH2 (X1-RPKPVE[Nva]WRK-NH2; SMILES CCC[C@H](NC(=O)[C@H](CCC(=O)O)NC(=O)[C@@H](NC(=O)[C@@H]1CCCN1C(=O)[C@H](CCCCN)NC(=O)[C@@H]1CCCN1C(=O)[C@H](CCCNC(=N)N)NC(=O)CCCCCn1c2ccccc2c(=O)c2ccccc21)C(C)C)C(=O)N[C@@H](Cc1c[nH]c2ccccc12)C(=O)N[C@@H](CCCNC(=N)N)C(=O)N[C@@H](CCCCN)C(N)=O) [acridone-labelled MMP-3 substrate peptide],lifetime of typical substrate,[2],10 nano seconds
same,fluorescence lifetime of substrate,"[1]; 50 mM Tris buffer pH 7.5, MMP-3 assay, FIG. 6",10 ns
same,Lifetime (ns),[3],12.6 ns
6-(9-oxo-9H-acridin-10-yl) hexanoic acid- RPKPVE (Arg-Pro-Lys-Pro-Val-Glu) (X1-RPKPVE) [acridone-labelled peptide without tryptophan],Lifetime (ns),[3],13.9 ns
6-(9-oxo-9H-acridin-10-yl) hexanoyl- CHLDIIW (X1-CHLDIIW) [acridone-labelled Asp-n protease substrate],lifetime of typical substrate,[2],10 nano seconds
6-(9-oxo-9H-acridin-10-yl) hexanoyl-Ala-Ala-Phe-Phe-Ala-Ala-Tyr (X1-AAFFAAY) [acridone-labelled protease substrate peptide],lifetime of typical substrate,[2],10 nano seconds
same,fluorescence lifetime of substrate,"[1]; 50 mM Tris buffer, pH7.8, 10 mM CaCl2",11.5 ns
same,fluorescence lifetime of substrate,"[1]; 0.1M citrate buffer, pH3.6, 0.005% Tween-20",10.3 ns
CC(=O)Nc1ccc2c(c1)c(=O)c1ccccc1n2CCCCCC(=O)O [6-(2-(acetamido)-9-oxo-9H-acridin-10-yl) hexanoic acid],lifetime of fluorescent label,[2],17 ns
O=C(O)CCCCCn1c2ccccc2c(=O)c2cc(Br)ccc21 [6-(2-bromo-9-oxo-9H-acridin-10-yl) hexanoic acid],lifetime of fluorescent label,[2],8 ns
O=C(O)CCCCCNC(=O)c1cccc2c(=O)c3ccccc3[nH]c12 [6-(9-oxo-9H-acridin-4-carboxamido) hexanoic acid],lifetime of fluorescent label,[2],4 ns
O=C(O)CCCCCn1c2ccccc2c(=O)c2ccccc21 [6-(9-oxo-9H-acridin-10-yl) hexanoic acid],lifetime of fluorescent label,[2],14 ns
CC(C)CC(=O)N[C@H](C(=O)N[C@H](C(=O)N[C@@H](CC(C)C)[C@@H](O)CC(=O)N[C@@H](C)C(=O)N[C@@H](CC(C)C)[C@@H](O)CC(=O)O)C(C)C)C(C)C [Pepstatin A] (Isovaleryl-VV[Sta]A[Sta]-OH),IC50,pepsin [4],0.88 nM
Asp-n,protease digestion of labelled substrate (fluorescence intensity and lifetime),[5],illustrates the digestion of 6-(9-oxo-9H-acridin-10-yl) hexanoyl -CHLDIIW (SEQ ID NO:2) with Asp-n
Matrix Metalloproteinase 3,protease digestion of labelled substrate (fluorescence lifetime),[6],enzyme-dependant appearance of the product (14 ns lifetime species) and disappearance of the substrate (10 ns lifetime species)
Pepstatin A (peptide),cathepsin D enzyme activity at 12 nM pepstatin A against no inhibitor,[7],5 fold
same,"inhibition of pepsin digestion of the labelled peptide substrate (fluorescence lifetime), apparent IC50",pepsin [8],0.88 nM
chymotrypsin,protease digestion of labelled substrate (fluorescence lifetime),[9],it was possible to monitor the appearance of product and disappearance of the substrate
pepsin,protease digestion of labelled substrate (fluorescence lifetime),[9],it was possible to monitor the appearance of product and disappearance of the substrate
B1,protease digestion of labelled substrate (fluorescence lifetime),[10],it was possible to monitor the appearance of product and disappearance of the substrate
